Drawing on paper PMC4153629, this text covers stoichiometry N for two substances.

The target of assay [1] is GH family 10 endo-β-1,4-xylanase Xyn10A from Caldicellulosiruptor lactoaceticus 6A (Caldicellulosiruptor lactoaceticus 6A). Nature of the assay: SEC; Superdex 200 column (33 mL elution volume), 50 mM sodium citrate, 150 mM NaCl, pH 6.0, 0.5 mL/min; apparent Mw from a calibration curve of log (Mw) vs. elution volume; self-association (homodimer).
Assay [2] addresses GH67 α-glucuronidase Agu67A from Caldicellulosiruptor lactoaceticus 6A (Caldicellulosiruptor lactoaceticus 6A). The assay is described as above.

On to “GH family 10 endo-β-1,4-xylanase Xyn10A from Caldicellulosiruptor lactoaceticus 6A (enzyme)”, for which the stoichiometry N in assay [1] worked out at 2. As to “GH67 α-glucuronidase Agu67A from Caldicellulosiruptor lactoaceticus 6A (enzyme)”, in assay [2], the stoichiometry N is 2.
